In series [1] the target is large tegument protein VP1/2 (ORF22) (Varicella-zoster virus (parental Oka strain)) (UniProt P09278). Kind of series: cryo-EM structure.
The series “cryo-EM structure” concerns the molecule itself. In words: cryo-EM structure.

By stoichiometry N is commonly meant the number of molecules, sites or subunits per partner or assembly. Turning to “large tegument protein VP1/2 (ORF22), P09278 1-2763”, the stoichiometry N in series [1] was 2.

B1: capsid vertex-specific component 2 (CVC2; ORF34) (natural protein, UniProt P09287 1-579, looked up)
chain: MTARYGFGSISFPNKCGIFLSTTKNFIAPNFPIHYWTAPAFELRGRMNPDLEKNTLTLKNAAAVAALDNLRGETITLPTEIDRRLKPLEEQLTRMAKVLDSLETAAAEAEEADAQSEECTRTEIIRNESIHPEVQIAKNDAPLQYDTNFQVDFITLVYLGRARGNNSPGIVFGPWYRTLQERLVLDRPVAARGVDCKDGRISRTFMNTTVTCLQSAGRMYVGDRAYSAFECAVLCLYLMYRTSNSVHEPQVSSFGNLIEHLPEYTETFVNYMTTHENKNSYQFCYDRLPRDQFHARGGRYDQGALTSHSVMDALIRLQVLPPAPGQFNPGVNDIIDRNHTAYVDKIQQAAAAYLERAQNVFLMEDQTLLRLTIDTITALLLLRRLLWNGNVYGDKLKNNFQLGLIVSEATGTPTNNVILRGATGFDGKFKSGNNNFQFLCERYIAPLYTLNRTTELTEMFPGLVALCLDAHTQLSRGSLGRTVIDISSGQYQDRLISLIALELEHRRQNVTSLPIAAVVSIHDSVMLQYERGLGMLMHQPRVRAALEESRRLAQFNVNSDYDLLYFVCLGVIPQFASTP
Turning to B1, the “stoichiometry N” value in the series “cryo-EM structure” was found to be 2.

B2: capsid triplex protein 2 (TRX2; ORF41) (natural protein, UniProt P09291 1-316, looked up)
chain: MAMPFEIEVLLPGELSPAETSALQKCEGKIITFSTLRHRASLVDIALSSYYINGAPPDTLSLLEAYRMRFAAVITRVIPGKLLAHAIGVGTPTPGLFIQNTSPVDLCNGDYICLLPPVFGSADSIRLDSVGLEIVFPLTIPQTLMREIIAKVVARAVERTAAGAQILPHEVLRGADVICYNGRRYELETNLQHRDGSDAAIRTLVLNLMFSINEGCLLLLALIPTLLVQGAHDGYVNLLIQTANCVRETGQLINIPPMPRIQDGHRRFPIYETISSWISTSSRLGDTLGTRAILRVCVFDGPSTVHPGDRTAVIQV
B2: the “stoichiometry N” value in the series “cryo-EM structure” stood at 2.

For the origin of these results see publication PMC13056932 (Nature Communications, 2026).
